# Source: patent US20250381283A1, “METHOD FOR TREATING SOLID TUMOR” (priority 2022, published 2025)
# T1: TROP2 (Trophoblast cell surface antigen 2) (UniProt P09758 27-323, limits assumed)
# T1 sequence (looked up): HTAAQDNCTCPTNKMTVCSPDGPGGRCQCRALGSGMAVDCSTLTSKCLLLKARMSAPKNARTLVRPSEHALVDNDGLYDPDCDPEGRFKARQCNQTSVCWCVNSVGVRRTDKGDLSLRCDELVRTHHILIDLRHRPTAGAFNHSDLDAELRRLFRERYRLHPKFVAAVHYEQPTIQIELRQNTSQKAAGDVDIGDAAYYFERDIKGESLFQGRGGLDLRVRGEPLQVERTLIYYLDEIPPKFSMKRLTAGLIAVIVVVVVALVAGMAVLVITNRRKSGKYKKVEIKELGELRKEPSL
# B1: ADC1 (hRS9 antibody conjugated to CB07-Exatecan) (antibody, human IgG1, kappa, DAR 4.2, V domains shown)
# VH: QVQLQQSGSELKKPGASVKVSCKASGYTFTNYGMNWVKQAPGQGLKWMGWINTYTGEPTYTDDFKGRFAFSLDTSVSTAYLQISSLKADDTAVYFCARGGFGSSYWYFDVWGQGTLVTVSS
# VL: DIQLTQSPSSLSASVGDRVSITCKASQDVSIAVAWYQQKPGKAPKLLIYSASYRYTGVPDRFSGSGSGTDFTLTISSLQPEDFAVYYCQQHYITPLTFGAGTKVEIKR
# modifications: CB07-Exatecan linker-drug conjugated to sulfhydryls of TCEP-reduced cysteines; average DAR (p) 4.2 over the whole antibody; positions not given
# Molecular target: T1, TROP2 (Trophoblast cell surface antigen …)
# Assay: cell-based or functional assay
binder,measurement,value
B1,"growth inhibition EC50 (CCK-8 cell proliferation, 120 h), MDA-MB-453 cells",0.64 µg/mL
same,"growth inhibition EC50 (CCK-8 cell proliferation, 120 h), MDA-MB-468 cells",0.158 µg/mL
same,"growth inhibition EC50 (CCK-8 cell proliferation, 120 h), MX-1 cells",0.233 µg/mL
